Where a chain is given by its changes, count along the chain named. Numbers in names are those of the source. Where “and” joins values, the source holds several entries; their conditions need not be identical. Identical values can stand only once.
B1: KB001 mouse Fab VL S95Q (Fab, V domains shown)
VH: EVQLKQSGPGLVAPSQSLSITCTVSGFSLSIYSVHWVRQPPGKGLEWLGMIWGGGSSDYNSALKSRLSISKDNSKSQVFLKMNSLQTDDTAMYYCARNGNFYAMDYWGQGTSVTVSS
VL: QIVLTQSPAIMSASLGERVTMTCTASSSVSSSFLHWYQQKPGSSPQLWIYSTSNLASGVPARFSGSGSGTSYSLTISSMEAEDAATYYCHQYHHQPYIYTFGGGTKLEIK
B2: KB001 mouse Fab VL Y97E (Fab, V domains shown)
VH: B1 VH
VL: B1 VL with Q95S, Y97E
B3: KB001 mouse Fab VL T100Q (Fab, V domains shown)
VH: B1 VH
VL: B1 VL with Q95S, T100Q
B4: KB001 mouse Fab VL T100G (Fab, V domains shown)
VH: B1 VH
VL: B1 VL with Q95S, T100G
B5: KB001 mouse Fab VL T100Y (Fab, V domains shown)
VH: B1 VH
VL: B1 VL with Q95S, T100Y
B6: KB001 mouse Fab VL T100F (Fab, V domains shown)
VH: B1 VH
VL: B1 VL with Q95S, T100F
B7: KB001 mouse Fab VL T100R (Fab, V domains shown)
VH: B1 VH
VL: B1 VL with Q95S, T100R
B8: KB001 mouse Fab VL T100H (Fab, V domains shown)
VH: B1 VH
VL: B1 VL with Q95S, T100H
B9: KB001 mouse Fab VL T100W (Fab, V domains shown)
VH: B1 VH
VL: B1 VL with Q95S, T100W
B10: KB001 mouse Fab VL T100E (Fab, V domains shown)
VH: B1 VH
VL: B1 VL with Q95S, T100E
B11: KB001 mouse Fab VL T100M (Fab, V domains shown)
VH: B1 VH
VL: B1 VL with Q95S, T100M
B12: KB001 mouse Fab VL T100L (Fab, V domains shown)
VH: B1 VH
VL: B1 VL with Q95S, T100L
B13: KB001 mouse Fab VL T100S (Fab, V domains shown)
VH: B1 VH
VL: B1 VL with Q95S, T100S
B14: KB001 mouse Fab VL T24I (Fab, V domains shown)
VH: B1 VH
VL: B1 VL with T24I, Q95S
B15: KB001 mouse Fab VL T24K/R18S (Fab, V domains shown)
VH: B1 VH
VL: B1 VL with R18S, T24K, Q95S
B16: KB001 mouse Fab VL T24L (Fab, V domains shown)
VH: B1 VH
VL: B1 VL with T24L, Q95S

target: HRgpA-6H (Porphyromonas gingivalis) (UniProt P28784); assay: ELISA, FASEBA Fab on coated HRgpA-6H
Chain of UniProt P28784 (P28784 228-991): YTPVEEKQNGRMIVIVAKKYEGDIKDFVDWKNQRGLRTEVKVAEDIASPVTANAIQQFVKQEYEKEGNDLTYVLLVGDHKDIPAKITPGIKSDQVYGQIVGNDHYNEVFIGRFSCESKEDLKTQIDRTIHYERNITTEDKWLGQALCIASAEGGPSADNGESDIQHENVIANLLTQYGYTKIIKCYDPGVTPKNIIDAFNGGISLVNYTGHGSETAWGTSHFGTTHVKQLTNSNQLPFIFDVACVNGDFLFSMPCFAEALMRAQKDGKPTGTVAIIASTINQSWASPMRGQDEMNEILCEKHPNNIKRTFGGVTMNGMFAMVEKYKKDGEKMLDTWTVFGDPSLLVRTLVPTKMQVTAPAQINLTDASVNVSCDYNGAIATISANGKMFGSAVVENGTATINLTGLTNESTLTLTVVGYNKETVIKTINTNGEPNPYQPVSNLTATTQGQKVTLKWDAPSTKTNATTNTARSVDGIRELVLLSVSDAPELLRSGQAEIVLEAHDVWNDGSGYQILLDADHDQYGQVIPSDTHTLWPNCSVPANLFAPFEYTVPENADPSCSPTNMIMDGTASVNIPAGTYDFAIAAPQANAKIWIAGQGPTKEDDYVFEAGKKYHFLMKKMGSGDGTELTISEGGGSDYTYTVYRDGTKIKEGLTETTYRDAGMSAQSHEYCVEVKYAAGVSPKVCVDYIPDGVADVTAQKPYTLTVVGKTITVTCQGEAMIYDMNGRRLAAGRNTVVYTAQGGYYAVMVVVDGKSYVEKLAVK

Binder	OD450nm	Ratio OD(Variant)/OD(WT)
B1	0.931 and 0.936 and 0.927	1.01 (2×) and 1.02
B2	0.793	1
B3	0.586 and 0.596 and 0.604	1.12 and 1.14 and 1.15
B4	0.603 and 0.597	1.15 and 1.14
B5	0.546	1.04
B6	0.552	1.05
B7	0.616	1.18
B8	0.597 and 0.631	1.14 and 1.21
B9	0.585	1.12
B10	0.613 and 0.621 and 0.674	1.17 and 1.19 and 1.29
B11	0.589	1.12
B12	0.587 and 0.566	1.12 and 1.08
B13	0.602 and 0.664 and 0.625	1.15 and 1.27 and 1.19
B14	0.741	0.964
B15	0.761	0.99
B16	0.753 and 0.752 and 0.667	0.979 and 0.978 and 0.867
